Consider six molecules from patent US20260049138A1 (Chugai, published 2026).

The assay addresses T1, CD3ε homodimer protein (human, UniProt P07766 23-126, limits assumed, sulfo-tag or biotin label in the ECL assays; amine-coupled to the chip in SPR).
T1 construct: also called human CD3ε homodimer protein; CD3 (CD3ε)
Nature of the assay: SPR Biacore T200; CD3ε homodimer on CM4 chip.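 Also: Single-residue variant antibodies injected as analyte over CD3ε homodimer immobilized by amine coupling, run at 25 °C in HBS-EP+ buffer.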

T1 sequence (P07766 23-126 limits assumed): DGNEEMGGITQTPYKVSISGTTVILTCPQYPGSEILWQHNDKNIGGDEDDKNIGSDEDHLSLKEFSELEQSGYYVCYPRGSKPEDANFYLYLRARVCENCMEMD

B1: CE115HA000 A102P one-arm antibody (antibody, human IgG1, kappa, L234A L235A, N297A, name in Kabat numbering)
heavy: QVQLVESGGGVVQPGRSLRLSCAASGFTFSNAWMHWVRQAPGKGLEWVAQIKAKSNNYATYYAESVKGRFTISRDDSKNSLYLQMNSLKTEDTAVYYCRYVHYGAYYGVDPWGQGTTVTVSSASTKGPSVFPLAPSSKSTSGGTAALGCLVKDYFPEPVTVSWNSGALTSGVHTFPAVLQSSGLYSLSSVVTVPSSSLGTQTYICNVNHKPSNTKVDKKVEPKSCDKTHTCPPCPAPEAAGGPSVFLFPPKPKDTLMISRTPEVTCVVVDVSHEDPEVKFNWYVDGVEVHNAKTKPREEQYASTYRVVSVLTVLHQDWLNGKEYKCKVSNKALPAPIEKTISKAKGQPREPQVYTLPPSRCELTKNQVSLSCAVKGFYPSDIAVEWESNGQPENNYKTTPPVLDSDGSFFLVSKLTVDKSRWQQGNVFSCSVMHEALHNHYTQKSLSLSPDYKDDDDK
chain: EPKSSDKTHTCPPCPAPELLGGPSVFLFPPKPKDTLMISRTPEVTCVVVDVSHEDPEVKFNWYVDGVEVHNAKTKPREEQYNSTYRVVSVLTVLHQDWLNGKEYKCKVSNKALPAPIEKTISKAKGQPREPQVCTLPPSRDELTKNQVSLWCLVKGFYPSDIAVEWESNGQPENNYKTTPPVLDSDGSFFLYSKLTVDKSRWQQGNVFSCSVMHEALHNRYTQKSLSLSP
light: DIVMTQSPLSLPVTPGEPASISCRSSQSLVHSNRNTYLHWYQQKPGQAPRLLIYKVSNRFSGVPDRFSGSGSGTDFTLKISRVEAEDVGVYYCGQGTQVPYTFGQGTKLEIKRTVAAPSVFIFPPSDEQLKSGTASVVCLLNNFYPREAKVQWKVDNALQSGNSQESVTEQDSKDSTYSLSSTLTLSKADYEKHKVYACEVTHQGLSSPVTKSFNRGEC
Regarding B1, the “ratio of amounts bound Z=Y/X (altered form / CE115HA000)” value turned out to be 0.14.

B2: CE115HA000 D72V one-arm antibody (antibody, human IgG1, kappa, L234A L235A, N297A, name in Kabat numbering)
heavy: QVQLVESGGGVVQPGRSLRLSCAASGFTFSNAWMHWVRQAPGKGLEWVAQIKAKSNNYATYYAESVKGRFTISRVDSKNSLYLQMNSLKTEDTAVYYCRYVHYGAYYGVDAWGQGTTVTVSSASTKGPSVFPLAPSSKSTSGGTAALGCLVKDYFPEPVTVSWNSGALTSGVHTFPAVLQSSGLYSLSSVVTVPSSSLGTQTYICNVNHKPSNTKVDKKVEPKSCDKTHTCPPCPAPEAAGGPSVFLFPPKPKDTLMISRTPEVTCVVVDVSHEDPEVKFNWYVDGVEVHNAKTKPREEQYASTYRVVSVLTVLHQDWLNGKEYKCKVSNKALPAPIEKTISKAKGQPREPQVYTLPPSRCELTKNQVSLSCAVKGFYPSDIAVEWESNGQPENNYKTTPPVLDSDGSFFLVSKLTVDKSRWQQGNVFSCSVMHEALHNHYTQKSLSLSPDYKDDDDK
chain: EPKSSDKTHTCPPCPAPELLGGPSVFLFPPKPKDTLMISRTPEVTCVVVDVSHEDPEVKFNWYVDGVEVHNAKTKPREEQYNSTYRVVSVLTVLHQDWLNGKEYKCKVSNKALPAPIEKTISKAKGQPREPQVCTLPPSRDELTKNQVSLWCLVKGFYPSDIAVEWESNGQPENNYKTTPPVLDSDGSFFLYSKLTVDKSRWQQGNVFSCSVMHEALHNRYTQKSLSLSP
light: DIVMTQSPLSLPVTPGEPASISCRSSQSLVHSNRNTYLHWYQQKPGQAPRLLIYKVSNRFSGVPDRFSGSGSGTDFTLKISRVEAEDVGVYYCGQGTQVPYTFGQGTKLEIKRTVAAPSVFIFPPSDEQLKSGTASVVCLLNNFYPREAKVQWKVDNALQSGNSQESVTEQDSKDSTYSLSSTLTLSKADYEKHKVYACEVTHQGLSSPVTKSFNRGEC
B2: the “ratio of amounts bound Z=Y/X (altered form / CE115HA000)” value came out at 1.43.

B3: CE115HA000 A102Y one-arm antibody (antibody, human IgG1, kappa, L234A L235A, N297A, name in Kabat numbering)
heavy: QVQLVESGGGVVQPGRSLRLSCAASGFTFSNAWMHWVRQAPGKGLEWVAQIKAKSNNYATYYAESVKGRFTISRDDSKNSLYLQMNSLKTEDTAVYYCRYVHYGAYYGVDYWGQGTTVTVSSASTKGPSVFPLAPSSKSTSGGTAALGCLVKDYFPEPVTVSWNSGALTSGVHTFPAVLQSSGLYSLSSVVTVPSSSLGTQTYICNVNHKPSNTKVDKKVEPKSCDKTHTCPPCPAPEAAGGPSVFLFPPKPKDTLMISRTPEVTCVVVDVSHEDPEVKFNWYVDGVEVHNAKTKPREEQYASTYRVVSVLTVLHQDWLNGKEYKCKVSNKALPAPIEKTISKAKGQPREPQVYTLPPSRCELTKNQVSLSCAVKGFYPSDIAVEWESNGQPENNYKTTPPVLDSDGSFFLVSKLTVDKSRWQQGNVFSCSVMHEALHNHYTQKSLSLSPDYKDDDDK
chain: EPKSSDKTHTCPPCPAPELLGGPSVFLFPPKPKDTLMISRTPEVTCVVVDVSHEDPEVKFNWYVDGVEVHNAKTKPREEQYNSTYRVVSVLTVLHQDWLNGKEYKCKVSNKALPAPIEKTISKAKGQPREPQVCTLPPSRDELTKNQVSLWCLVKGFYPSDIAVEWESNGQPENNYKTTPPVLDSDGSFFLYSKLTVDKSRWQQGNVFSCSVMHEALHNRYTQKSLSLSP
light: DIVMTQSPLSLPVTPGEPASISCRSSQSLVHSNRNTYLHWYQQKPGQAPRLLIYKVSNRFSGVPDRFSGSGSGTDFTLKISRVEAEDVGVYYCGQGTQVPYTFGQGTKLEIKRTVAAPSVFIFPPSDEQLKSGTASVVCLLNNFYPREAKVQWKVDNALQSGNSQESVTEQDSKDSTYSLSSTLTLSKADYEKHKVYACEVTHQGLSSPVTKSFNRGEC
For the molecule B3, the “ratio of amounts bound Z=Y/X (altered form / CE115HA000)” value came to 0.91.

B4: CE115HA000 A102V one-arm antibody (antibody, human IgG1, kappa, L234A L235A, N297A, name in Kabat numbering)
heavy: QVQLVESGGGVVQPGRSLRLSCAASGFTFSNAWMHWVRQAPGKGLEWVAQIKAKSNNYATYYAESVKGRFTISRDDSKNSLYLQMNSLKTEDTAVYYCRYVHYGAYYGVDVWGQGTTVTVSSASTKGPSVFPLAPSSKSTSGGTAALGCLVKDYFPEPVTVSWNSGALTSGVHTFPAVLQSSGLYSLSSVVTVPSSSLGTQTYICNVNHKPSNTKVDKKVEPKSCDKTHTCPPCPAPEAAGGPSVFLFPPKPKDTLMISRTPEVTCVVVDVSHEDPEVKFNWYVDGVEVHNAKTKPREEQYASTYRVVSVLTVLHQDWLNGKEYKCKVSNKALPAPIEKTISKAKGQPREPQVYTLPPSRCELTKNQVSLSCAVKGFYPSDIAVEWESNGQPENNYKTTPPVLDSDGSFFLVSKLTVDKSRWQQGNVFSCSVMHEALHNHYTQKSLSLSPDYKDDDDK
chain: EPKSSDKTHTCPPCPAPELLGGPSVFLFPPKPKDTLMISRTPEVTCVVVDVSHEDPEVKFNWYVDGVEVHNAKTKPREEQYNSTYRVVSVLTVLHQDWLNGKEYKCKVSNKALPAPIEKTISKAKGQPREPQVCTLPPSRDELTKNQVSLWCLVKGFYPSDIAVEWESNGQPENNYKTTPPVLDSDGSFFLYSKLTVDKSRWQQGNVFSCSVMHEALHNRYTQKSLSLSP
light: DIVMTQSPLSLPVTPGEPASISCRSSQSLVHSNRNTYLHWYQQKPGQAPRLLIYKVSNRFSGVPDRFSGSGSGTDFTLKISRVEAEDVGVYYCGQGTQVPYTFGQGTKLEIKRTVAAPSVFIFPPSDEQLKSGTASVVCLLNNFYPREAKVQWKVDNALQSGNSQESVTEQDSKDSTYSLSSTLTLSKADYEKHKVYACEVTHQGLSSPVTKSFNRGEC
With B4, the “ratio of amounts bound Z=Y/X (altered form / CE115HA000)” value was 1.43.

B5: CE115HA000 D72E one-arm antibody (antibody, human IgG1, kappa, L234A L235A, N297A, name in Kabat numbering)
heavy: QVQLVESGGGVVQPGRSLRLSCAASGFTFSNAWMHWVRQAPGKGLEWVAQIKAKSNNYATYYAESVKGRFTISREDSKNSLYLQMNSLKTEDTAVYYCRYVHYGAYYGVDAWGQGTTVTVSSASTKGPSVFPLAPSSKSTSGGTAALGCLVKDYFPEPVTVSWNSGALTSGVHTFPAVLQSSGLYSLSSVVTVPSSSLGTQTYICNVNHKPSNTKVDKKVEPKSCDKTHTCPPCPAPEAAGGPSVFLFPPKPKDTLMISRTPEVTCVVVDVSHEDPEVKFNWYVDGVEVHNAKTKPREEQYASTYRVVSVLTVLHQDWLNGKEYKCKVSNKALPAPIEKTISKAKGQPREPQVYTLPPSRCELTKNQVSLSCAVKGFYPSDIAVEWESNGQPENNYKTTPPVLDSDGSFFLVSKLTVDKSRWQQGNVFSCSVMHEALHNHYTQKSLSLSPDYKDDDDK
chain: EPKSSDKTHTCPPCPAPELLGGPSVFLFPPKPKDTLMISRTPEVTCVVVDVSHEDPEVKFNWYVDGVEVHNAKTKPREEQYNSTYRVVSVLTVLHQDWLNGKEYKCKVSNKALPAPIEKTISKAKGQPREPQVCTLPPSRDELTKNQVSLWCLVKGFYPSDIAVEWESNGQPENNYKTTPPVLDSDGSFFLYSKLTVDKSRWQQGNVFSCSVMHEALHNRYTQKSLSLSP
light: DIVMTQSPLSLPVTPGEPASISCRSSQSLVHSNRNTYLHWYQQKPGQAPRLLIYKVSNRFSGVPDRFSGSGSGTDFTLKISRVEAEDVGVYYCGQGTQVPYTFGQGTKLEIKRTVAAPSVFIFPPSDEQLKSGTASVVCLLNNFYPREAKVQWKVDNALQSGNSQESVTEQDSKDSTYSLSSTLTLSKADYEKHKVYACEVTHQGLSSPVTKSFNRGEC
Consider B5, for which the “ratio of amounts bound Z=Y/X (altered form / CE115HA000)” value was 1.05.

B6: CE115HA000 D72A one-arm antibody (antibody, human IgG1, kappa, L234A L235A, N297A, name in Kabat numbering)
heavy: QVQLVESGGGVVQPGRSLRLSCAASGFTFSNAWMHWVRQAPGKGLEWVAQIKAKSNNYATYYAESVKGRFTISRADSKNSLYLQMNSLKTEDTAVYYCRYVHYGAYYGVDAWGQGTTVTVSSASTKGPSVFPLAPSSKSTSGGTAALGCLVKDYFPEPVTVSWNSGALTSGVHTFPAVLQSSGLYSLSSVVTVPSSSLGTQTYICNVNHKPSNTKVDKKVEPKSCDKTHTCPPCPAPEAAGGPSVFLFPPKPKDTLMISRTPEVTCVVVDVSHEDPEVKFNWYVDGVEVHNAKTKPREEQYASTYRVVSVLTVLHQDWLNGKEYKCKVSNKALPAPIEKTISKAKGQPREPQVYTLPPSRCELTKNQVSLSCAVKGFYPSDIAVEWESNGQPENNYKTTPPVLDSDGSFFLVSKLTVDKSRWQQGNVFSCSVMHEALHNHYTQKSLSLSPDYKDDDDK
chain: EPKSSDKTHTCPPCPAPELLGGPSVFLFPPKPKDTLMISRTPEVTCVVVDVSHEDPEVKFNWYVDGVEVHNAKTKPREEQYNSTYRVVSVLTVLHQDWLNGKEYKCKVSNKALPAPIEKTISKAKGQPREPQVCTLPPSRDELTKNQVSLWCLVKGFYPSDIAVEWESNGQPENNYKTTPPVLDSDGSFFLYSKLTVDKSRWQQGNVFSCSVMHEALHNRYTQKSLSLSP
light: DIVMTQSPLSLPVTPGEPASISCRSSQSLVHSNRNTYLHWYQQKPGQAPRLLIYKVSNRFSGVPDRFSGSGSGTDFTLKISRVEAEDVGVYYCGQGTQVPYTFGQGTKLEIKRTVAAPSVFIFPPSDEQLKSGTASVVCLLNNFYPREAKVQWKVDNALQSGNSQESVTEQDSKDSTYSLSSTLTLSKADYEKHKVYACEVTHQGLSSPVTKSFNRGEC
With B6, the “ratio of amounts bound Z=Y/X (altered form / CE115HA000)” value is 1.41.
